Test [1] has as its target PD-L1 expressed on CHO cells (human, UniProt Q9NZQ7 19-290). Description: cell-based or functional assay.
The target in test [2] is T1, human PD-L1 protein (soluble) (human, UniProt Q9NZQ7 19-239).
T1 construct: also called PD-L1 (R&D Systems); His-tagged PD-L1 protein
In words: SPR, mAb captured on anti-human IgG Fc, PD-L1 as analyte. (In general: Surface plasmon resonance follows binding to a sensor surface in real time, without labels.)
Method: (§1) The surface was then deactivated with 1 M ethanolamine pH 8.5 (Carterra Inc.). Running buffer used for the lawn immobilization was HBS-EPC (10 mM HEPES, 150 mM NaCl, 3 mM EDTA, 0.05% Tween 20, pH 7.4; Teknova).
(§2) The sensor chip was then transferred to a continuous flow microspotter (CFM; Carterra Inc.) for array capturing. The mAb supernatants were diluted 50-fold (3-10 mg/mL final concentration) into HBS-EPC with 1 mg/mL BSA. The samples were each captured twice with 15-minute and 4-minute capture steps on the first and second prints, respectively, to create multiple densities, using a 65 mL/min flow rate. The running buffer in the CFM was also HBS-EPC.
(§3) Next, the sensor chip was loaded onto an SPR reader (MX-96 system; Ibis Technologies) for the kinetic analysis. […] PD-L1 injections were 5 minutes with a 15-minute dissociation at 8 mL/second in a non-regenerative kinetic series. An injection of the goat anti-Human IgG Fc capture antibody at 75 mg/mL was injected at the end of the series to verify the capture level of each mAb. Binding data was double referenced by subtracting an interspot surface and a blank injection and analyzed for ka (on-rate), kd (off-rate), and KD (affinity) using the Kinetic Interaction Tool software (Carterra Inc.).

The target of test [3] is T1, human PD-L1 protein (soluble). Described as above. The source holds these as a separate data set.
Method: as §1, §2, §3
Another test has as its target T2, cyno PD-L1 (cyno).
T2 construct: Soluble analyte in BLI
In words: BLI (Octet), antibody on AHC biosensor, cyno PD-L1 as analyte. A general note: In BLI a coated tip is dipped into the sample, and binding shifts an interference pattern.

For another test, the target named is T3, rhPD-L1-Fc (human, UniProt Q9NZQ7 19-239, limits assumed).
T3 construct: Recombinant human PD-L1-Fc coated on ELISA plates; not shown: Fc part
T3 sequence (Q9NZQ7 19-239 limits assumed): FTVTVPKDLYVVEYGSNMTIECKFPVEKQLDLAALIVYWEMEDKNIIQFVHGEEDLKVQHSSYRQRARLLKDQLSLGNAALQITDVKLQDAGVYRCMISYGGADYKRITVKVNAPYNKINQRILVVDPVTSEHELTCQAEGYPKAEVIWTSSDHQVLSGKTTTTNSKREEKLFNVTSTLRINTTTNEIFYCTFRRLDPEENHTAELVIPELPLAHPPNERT
In words: competition ELISA: plate-bound rhPD-L1-Fc, antibody titrated, competitor rhCD80-His detected.

Residue numbers refer to the chain shown, from its start. Where two headings read alike, the source gives them in different places.
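Throughout, for koff: array SPR with mAb supernatants captured at several densities, PD-L1 injected for 5 min then 15 min dissociation, non-regenerative kinetic series, double-referenced against interspot surface and blank injection.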
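Throughout, for kon: array SPR with mAb supernatants captured at several densities, PD-L1 injected for 5 min then 15 min dissociation, non-regenerative kinetic series, double-referenced against interspot surface and blank injection.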

T1 sequence (Q9NZQ7 19-239 limits assumed): as above
Chain of PD-L1 expressed on CHO cells (Q9NZQ7 19-290 limits assumed): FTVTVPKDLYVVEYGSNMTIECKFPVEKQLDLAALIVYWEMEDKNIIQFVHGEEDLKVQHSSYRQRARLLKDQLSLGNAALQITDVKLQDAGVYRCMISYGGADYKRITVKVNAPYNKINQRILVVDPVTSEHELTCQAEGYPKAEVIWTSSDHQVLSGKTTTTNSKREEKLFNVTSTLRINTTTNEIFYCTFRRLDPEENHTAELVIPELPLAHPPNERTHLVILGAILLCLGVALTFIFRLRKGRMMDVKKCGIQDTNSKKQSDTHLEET
Method for cyno PD-L1: For BLI, antibodies were loaded onto an Anti-Human IgG Fc (AHC) biosensor using the Octet Red96 system (ForteBio). Loaded biosensors were dipped into antigen dilutions beginning at 300 nM, with 6 serial dilutions at 1:3. Kinetic analysis was performed using a 1:1 binding model and global fitting.
Method for rhPD-L1-Fc: Plates were coated with rhPD-L1-Fc and then blocked with 1× PBS with 2% w/v BSA. After blocking a dilution series of the indicated antibody was added to the plate.

B1: antibody A13 (antibody, V domains shown)
VH: QVQLQESGPGLVKPSETLSLTCTVSGGSISSYYWSWIRQPPGKGLEWIGYIHYSGSTKYNPSLKSRVTISLDTSKNQFSLKLSSVTAADTAVYYCARDRGIGAFDIWGQGTMVTVSS
VL: EIVMTQSPATLSLSPGERATLSCRASQSVSSSYLSWYQQKPGQAPRLLIYGASTRATGIPARFSGSGSGTDFTLTISSLQPEDFAVYYCQQDYNLITFGQGTRLEIK
notes: Tested as full-length mAb made in CHO cells; also called L13H13
With B1, in test [1], the “Promega assay antagonist (EC50, ug/mL)” value turned out to be 1.12 µg/mL. Binding in test [2] was characterised by a dissociation constant (Kd) of 124 nM. In test [3], this molecule returned a Kd of 126 nM, a koff of 0.039 s⁻¹ and a kon of 310000 M⁻¹ s⁻¹. For the same molecule, the Kd in the test with cyno PD-L1 was 101 nM. The molecule further yielded an EC50 with rhPD-L1-Fc of 0.6 µg/mL.

B2: antibody A23 (antibody, V domains shown)
VH: QVQLVQSGAEVKKPGASVKVSCKASGYTFTNYGISWVRQAPGQGLEWMGWISAYNGNTNYEQKVQGRVTMTTDTSTSTAYMELRSLRSDDTAVYYCARSLTGLFDYWGQGTLVTVSS
VL: DIQMTQSPSSLSASVGDRVTITCRASQGIRNDLGWYQQKPGKAPKRLIYAASSLQSGVPSRFSGSGSGTEFTLTISSLQPEDFATYYCLQHNSYPMFTFGQGTKLEIK
Consider B2, for which the “Promega assay antagonist (EC50, ug/mL)” value in test [1] was found to be 9.8 µg/mL.

B3: antibody A10 (antibody, V domains shown)
VH: QVQLVESGGGVVQPGRSLRLSCAASGFTFSSYGMHWVRQAPGKGLEWVAVIWYDGINKYYADSVKGRFTISRDNSKNTLYLQMNSLRAEDTAVYYCARDSTASPFDYWGQGTLVTVSS
VL: EIVMTQSPATLSLSPGERATLSCRASQSVSSSYLSWYQQKPGQAPRLLIYGASTRATGIPARFSGSGSGTDFTLTISSLQPEDFAVYYCQQDYNLPHTFGQGTKLEIK
notes: Tested as full-length mAb made in CHO cells; also called L10H10
Turning to B3, in test [1], the “Promega assay antagonist (EC50, ug/mL)” value was determined as 0.27 µg/mL. In addition, the Kd in test [2] was 42 nM. Besides, in test [3], the Kd was 40.9 nM, the koff was 0.018 s⁻¹ and the kon amounted to 440000 M⁻¹ s⁻¹. In the test with cyno PD-L1, this molecule yielded a Kd of 27.4 nM. In the test with rhPD-L1-Fc, the EC50 was 2.24 µg/mL.

B4: antibody A6 (antibody, V domains shown)
VH: B3 VH with Y53F, I56S, S100K, A102V, Y107I, L113M
VL: B1 VL with I96F, Q100P, R103K, L104V, E105D
notes: Tested as full-length mAb made in CHO cells; also called L6H6
For B4, the “Promega assay antagonist (EC50, ug/mL)” value in test [1] was 0.111 µg/mL. The molecule further showed a Kd in test [2] of 16 nM. In test [3], the Kd was 15.8 nM, the koff stood at 0.0049 s⁻¹ and the kon worked out at 310000 M⁻¹ s⁻¹. This molecule had an EC50 in the test with rhPD-L1-Fc of 2.62 µg/mL.

B5: antibody A1 (antibody, V domains shown)
VH: QVQLVQSGAEVKKPGASVKVSCKASGFTFTSYDINWVRQATGQGLEWMGWMHPNSGITGYAQKFQGRVTMTRNTSISTAYMELSSLSSEDTAVYFCARYYYVSGSYDYWGQGTLVTVSS
VL: B3 VL with R24W, H97Y
notes: Tested as full-length mAb made in CHO cells; also called L1H1
Turning to B5, in test [1], the “Promega assay antagonist (EC50, ug/mL)” value was determined as 0.0415 µg/mL. Besides, the Kd stood at 0.13 nM in test [2], 0.13 nM in test [3] and 0.31 nM with cyno PD-L1. The same molecule gave a koff in test [3] of 0.00013 s⁻¹. Further, the kon in test [3] is 1e+06 M⁻¹ s⁻¹. The EC50 with rhPD-L1-Fc came out at 0.4 µg/mL.

B6: antibody A9 (antibody, V domains shown)
VH: B3 VH with Y53F, I56N, S100V, A102T, S103V
VL: B3 VL with I49M, H97Y
notes: Tested as full-length mAb made in CHO cells; also called L9H9
Turning to B6, the “Promega assay antagonist (EC50, ug/mL)” value in test [1] stood at 0.28 µg/mL. Moreover, the affinity in test [2], expressed as Kd, was 26 nM. Further, in test [3], the Kd is 26.2 nM, the koff was 0.0055 s⁻¹ and the kon amounted to 210000 M⁻¹ s⁻¹. Moreover, the Kd with cyno PD-L1 stood at 20.9 nM. Besides, the EC50 with rhPD-L1-Fc was found to be 1.49 µg/mL.

B7: antibody A14 (antibody, V domains shown)
VH: B3 VH with I56S, N57V, S100R, A102G, S103V
VL: B3 VL
notes: Tested as full-length mAb made in CHO cells; also called L14H14
Take B7: the “Promega assay antagonist (EC50, ug/mL)” value in test [1] amounted to 1.23 µg/mL. For the same molecule, the Kd in test [2] turned out to be 148 nM. Moreover, in test [3], the Kd came out at 146 nM, the koff was determined as 0.038 s⁻¹ and the kon was found to be 260000 M⁻¹ s⁻¹. In the test with cyno PD-L1, this molecule came in with a dissociation constant (Kd) of 57.7 nM. Moreover, in the test with rhPD-L1-Fc, the EC50 turned out to be 0.6 µg/mL.

B8: antibody A18 (antibody, V domains shown)
VH: QVQLVESGGGVVQPGRSLRLSCAASGFTFSSFALHWVRQAPGKGLEWVAVLWYDGISKYYADSVKGRFTISRDNSKNTLYLQMNSLRAEDTAVYYCARDVVGVHDAFDIWGQGTMVTVSS
VL: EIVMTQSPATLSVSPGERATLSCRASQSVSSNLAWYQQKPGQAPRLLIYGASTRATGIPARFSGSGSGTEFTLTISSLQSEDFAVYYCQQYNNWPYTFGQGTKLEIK
notes: also called L18H18
Regarding B8, the “Promega assay antagonist (EC50, ug/mL)” value in test [1] worked out at 0.088 µg/mL. Moreover, the Kd in test [2] came out at 442 nM. In test [3], this molecule registered a Kd of 438 nM, a koff of 0.035 s⁻¹ and a kon of 80000 M⁻¹ s⁻¹.

B9: antibody A19 (antibody, V domains shown)
VH: QVQLVESGGGVVQPGRSLRLSCVASGFTFSSYGMHWVRQAPGKGLEWVAVIWYDGSNKFYIDSVKGRFTISRDNSKNTLYLQMNSLRAEDTAVYYCARGGAVAGTSWYYYYGMDVWGQGTTVTVSS
VL: DIQLTQSPSFLSASVGDRVTITCRASQGISSYLAWYQQKPGKAPKLLIYDASTLQSGVPSRFSGSGSGTEFTLTISSLQPEDFAIYYCQQLNTYPLTFGGGTKVEIK
notes: Tested as full-length mAb made in CHO cells; also called L19H19
In test [2], B9 showed a Kd of 567 nM. In test [3], this molecule displayed a Kd of 565 nM, a koff of 0.0035 s⁻¹ and a kon of 6200 M⁻¹ s⁻¹.

B10: antibody A21 (antibody, V domains shown)
VH: B9 VH with V23A, I61E, A101V, V102N, A103W, G104N, T105D, S106V, W107G
VL: B9 VL with S9P, D50A, I85T, T93S, L96F, G100Q, V104L
notes: Tested as full-length mAb made in CHO cells; also called L21H21
On to B10, for which, in test [2], the Kd was determined as 860 nM. In addition, in test [3], the Kd is 867 nM, the koff is 0.013 s⁻¹ and the kon was 15000 M⁻¹ s⁻¹.

B11: antibody A11 (antibody, V domains shown)
VH: QVQLVESGGGVVQPGRSLRLSCAASGFTFSSYGIHWVRQAPGKGLEWVAVIWSDGSNKFYADSVKGRFTISRDNSKNTLFLQMSSLRAEDTAVYYCARDIAAAIDYWGQGTLVTVSS
VL: AIQMTQSPSSLSASVGDRVTITCRASQGIRNDLGWYQQKPGKAPKLLIYAASSLQSGVPSRFSGSGSGTDFTLTISSLQPEDFATYYCLQDYNYPYTFGQGTKLEIK
notes: Tested as full-length mAb made in CHO cells; also called L11H11
With B11, the “Promega assay antagonist (EC50, ug/mL)” value in test [1] amounted to 0.158 µg/mL. Moreover, binding in test [2] was put at a Kd of 66 nM. Besides, in test [3], the Kd was found to be 64.7 nM, the koff stood at 0.011 s⁻¹ and the kon came to 170000 M⁻¹ s⁻¹. In the test with cyno PD-L1, this molecule registered a Kd of 17.7 nM. In the test with rhPD-L1-Fc, the EC50 amounted to 0.56 µg/mL.

B12: antibody A17 (antibody, V domains shown)
VH: QVQLQESGPGLVKPSETLSLTCTVSGGSISGYSWSWIRQPPGKGLEWIGYIYYSGSTNNNPSLKSRVTISVDTSKNQFSLKLSSVTAADTAVYFCARDDGIAVAGYYFYYGLDVWGQGTTVTVSS
VL: B11 VL with A1D, L46R, D70E, D91H, Y92N, N93T, Y96W, L104V
notes: Tested as full-length mAb made in CHO cells; also called L17H17
Turning to B12, the “Promega assay antagonist (EC50, ug/mL)” value in test [1] is 2.25 µg/mL. For the same molecule, binding in test [2] was characterised by a dissociation constant (Kd) of 335 nM. In test [3], this molecule came in with a Kd of 335 nM, a koff of 0.077 s⁻¹ and a kon of 230000 M⁻¹ s⁻¹. The same molecule had a Kd with cyno PD-L1 of 762 nM.

B13: antibody A12 (antibody, V domains shown)
VH: QVQLVESGGGVVQPGRSLRLSCAASGFTFSSYGMHWVRQAPGKGLEWVAVIWYDGSNKSYADSVKGRFTFSRDNSKNTLYLQMNSLRAEDTAVYYCARDMDYFGLDVWGQGTTVTVSS
VL: B11 VL with A1D, L46R, D70E, D91H, Y92N, N93S, Y96R, L104V
notes: Tested as full-length mAb made in CHO cells; also called L12H12
B13: in test [1], the “Promega assay antagonist (EC50, ug/mL)” value stood at 3.13 µg/mL. For the same molecule, the Kd in test [2] came to 80 nM. In test [3], this molecule gave an equilibrium dissociation constant (Kd) of 81.3 nM, a koff of 0.013 s⁻¹ and a kon of 160000 M⁻¹ s⁻¹. This molecule had a dissociation constant (Kd) with cyno PD-L1 of 75.9 nM.

B14: antibody A15 (antibody, V domains shown)
VH: QLQLQESGPGLVKPSETLSLTCTVSGGSFNRSNYYWGWIRQPPGKGLEWIGSIYYSGSTYYNPSLKSRLTISADTSKTQFSLKRNSVTAADTAVYYCAREDIVVVPAAQPPHFYFGMDVWGQGTTVTVSS
VL: B11 VL with A1D, L46R, D70E, D91H, Y92D, N93S, Y96L, Q100G, L104V
notes: Tested as full-length mAb made in CHO cells; also called L15H15
As for B14, the “Promega assay antagonist (EC50, ug/mL)” value in test [1] came out at 0.55 µg/mL. For the same molecule, the affinity in test [2], expressed as Kd, was 227 nM. In test [3], this molecule came in with a dissociation constant Kd of 227 nM, an off-rate (koff) of 0.022 s⁻¹ and a kon of 97000 M⁻¹ s⁻¹.

B15: antibody A20 (antibody, V domains shown)
VH: B12 VH with G31S, S33Y, N59Y, F94Y, G100R, A104G, G105P, F108Y, L112M
VL: B11 VL with A1D, L46R, D70E, D91H, Y92N, N93S
notes: Tested as full-length mAb made in CHO cells; also called L20H20
As for B15, in test [2], the Kd was found to be 675 nM. In test [3], the Kd is 688 nM, the koff came out at 0.11 s⁻¹ and the kon was found to be 160000 M⁻¹ s⁻¹.

B16: antibody A16 (antibody, V domains shown)
VH: B13 VH with S59Y, F70I, K76N, N77D, Y80F, M100F, Y102W, L105M
VL: B11 VL with A1D, L46R, D70E, D91H, Y92N, N93S, Y96R, L104V
notes: Tested as full-length mAb made in CHO cells; also called L16H16
In the case of B16, the affinity in test [2], expressed as Kd, was 246 nM. Moreover, in test [3], the Kd worked out at 250 nM, the koff worked out at 0.035 s⁻¹ and the kon worked out at 140000 M⁻¹ s⁻¹. The molecule further displayed a Kd with cyno PD-L1 of 532 nM. The molecule also yielded an EC50 with rhPD-L1-Fc of 0.64 µg/mL.

Broadly, the Kd is the equilibrium constant for the complex coming apart. A high value points to weaker binding. As a reminder, the koff is a measure of how fast the partners let go of each other. A higher koff goes with fast dissociation. A word on the kon: it is a measure of how fast the partners come together. Read a low kon as slower complex formation. A word on the EC50: it is the concentration needed to bring the measured effect to its halfway point.

These data come from patent US20220056137A1 (GIGAGEN, published 2022).
